{"source": "patent US20140242093A1", "about": "“METHODS AND COMPOSITIONS FOR MODULATING THE INNATE IMMUNE RESPONSE AND/OR MYOGENESIS IN A MAMMALIAN SUBJECT” (FRED HUTCHINSON CANCER RESEARCH CENTER, priority 2011, published 2014)", "tested_on": "control human primary myoblasts", "test": "Expression microarray of primary myoblasts transduced with lentivirus carrying DUX4-fl, DUX4-s or GFP", "protocol": "Primary human myoblasts were collected and cultured as previously described (Snider et al., 2010). Primary myoblasts were maintained at or below 70% confluency for proliferation. For differentiation, cells were allowed to reach 95-100% confluency in growth medium. Once confluency was reached, the cells were changed to differentiation medium (F10 media supplemented with 1% horse serum, 10 μg/mL insulin, and 10 μg/mL transferrin, penicillin/streptomycin) and maintained for 4 days. Human RD cells were grown in DMEM in 10% bovine calf serum (Hyclone) and penicillin/streptomycin. The primary myoblasts were transduced with lentivirus carrying DUX-fl, DUX4- or GFP (MOI=15).\nExpression microarrays were performed on the transduced cells at 24 hours after transduction as follows. […] Samples were analyzed by Illumina Human Whole Genome microarrays. Probe intensities were corrected, normalized, and summarized by the Lumi package of Bioconductor (Du et al., 2008). Differentially expressed genes were identified by the LIMMA package of Bioconductor (Wettenhall and Smyth, 2004). Gene set enrichment analysis (GSEA) was performed using the Bioconductor GOstats package (Falcon and Gentleman, 2007).", "data": [{"molecule": "DUX4-s: short splice form of DUX4 (SEQ ID NO:112), keeps the double-homeobox domains, lacks the C-terminal activation domain (protein, listed as Homo sapiens) MALPTPSDSTLPAEARGRGRRRRLVWTPSQSEALRACFERNPYPGIATRERLAQAIGIPEPRVQIWFQNERSRQLRQHRRESRPWPGRRGPPEGRRKRTAVTGSQTALLLRAFEKDRFPGIAAREELARETGLPESRIQIWFQNRRARHPGQGGRAPAQV", "values": [{"measurement": "C1orf55 expression fc", "setting": "Refseq NM_152608.3", "result": "−0.3632"}, {"measurement": "MLKL expression fc", "setting": "Refseq NM_152649.1, cultured human skeletal muscle", "result": 1.457}, {"measurement": "ZSCAN4 expression fc", "setting": "Refseq NM_152677.1", "result": 0.04366}, {"measurement": "SAMD9L expression fc", "setting": "Refseq NM_152703.2, cultured human skeletal muscle", "result": 1.257}, {"measurement": "VWCE expression fc", "setting": "Refseq NM_152718.2, cultured human skeletal muscle", "result": "−0.1213"}, {"measurement": "fc of D2HGDH (expression array)", "setting": "Refseq NM_152783.3", "result": "−0.3982"}, {"measurement": "FAS fc", "setting": "Refseq NM_152877.1", "result": 0.1452}, {"measurement": "APCDD1 expression fc", "setting": "Refseq NM_153000.3, cultured human skeletal muscle", "result": "−0.4301"}, {"measurement": "PMP22 fc", "setting": "Refseq NM_153321.1", "result": 0.2667}, {"measurement": "SLC2A14 expression fc", "setting": "Refseq NM_153449.2", "result": 0.2472}, {"measurement": "CYBASC3 expression fc", "setting": "Refseq NM_153611.3, cultured human skeletal muscle", "result": "−0.4218"}, {"measurement": "GPBAR1 expression fc", "setting": "Refseq NM_170699.2", "result": "−0.1298"}, {"measurement": "NLRX1 fc", "setting": "Refseq NM_170722.1", "result": "−0.1409"}, {"measurement": "fc of HSCB (expression array)", "setting": "Refseq NM_172002.3", "result": 0.1735}, {"measurement": "fc of ZNF650 (expression array)", "setting": "Refseq NM_172070.2", "result": 0.6904}, {"measurement": "fc of IL4I1 (expression array)", "setting": "Refseq NM_172374.1", "result": 1.769}, {"measurement": "KLF17 expression fc", "setting": "Refseq NM_173484.3", "result": 0.08045}, {"measurement": "fc of RCOR2 (expression array)", "setting": "Refseq NM_173587.2", "result": "−0.1949"}, {"measurement": "fc of DCBLD1 (expression array)", "setting": "Refseq NM_173674.1", "result": 1.594}, {"measurement": "WARS expression fc", "setting": "Refseq NM_173701.1, cultured human skeletal muscle", "result": 1.715}, {"measurement": "fc of C3orf38 (expression array)", "setting": "Refseq NM_173824.2", "result": 1.033}, {"measurement": "fc of UBR1 (expression array)", "setting": "Refseq NM_174916.1", "result": 1.111}, {"measurement": "fc of C4orf34 (expression array)", "setting": "Refseq NM_174921.1", "result": 0.6119}, {"measurement": "FRMD3 fc", "setting": "Refseq NM_174938.3", "result": "−0.2907"}, {"measurement": "MT1E expression fc", "setting": "Refseq NM_175617.3, cultured human skeletal muscle", "result": 0.1289}, {"measurement": "TXLNA fc", "setting": "Refseq NM_175852.3", "result": "−0.1621"}, {"measurement": "MT1M expression fc", "setting": "Refseq NM_176870.2, cultured human skeletal muscle", "result": 1.185}, {"measurement": "PPAP2A fc", "setting": "Refseq NM_176895.1", "result": 0.545}, {"measurement": "CSE1L expression fc", "setting": "Refseq NM_177436.1", "result": 0.07287}, {"measurement": "PPM1B expression fc", "setting": "Refseq NM_177968.2", "result": "−0.0342"}, {"measurement": "fc of STARD13 (expression array)", "setting": "Refseq NM_178006.1", "result": "−0.8963"}, {"measurement": "RILPL1 fc", "setting": "Refseq NM_178314.2", "result": 0.6233}, {"measurement": "HIF1A fc", "setting": "Refseq NM_181054.1", "result": 0.4209}, {"measurement": "ID1 fc", "setting": "Refseq NM_181353.1", "result": 0.7329}, {"measurement": "C1QTNF3 expression fc", "setting": "Refseq NM_181435.4", "result": "−0.02264"}, {"measurement": "PPP2R2B expression fc", "setting": "Refseq NM_181677.1", "result": "−0.1091"}, {"measurement": "PPP2R2C fc", "setting": "Refseq NM_181876.2", "result": "−0.2308"}, {"measurement": "BCL9L fc", "setting": "Refseq NM_182557.2", "result": 0.7326}, {"measurement": "fc of IRF2BP2 (expression array)", "setting": "Refseq NM_182972.2", "result": "−0.806"}, {"measurement": "fc of TRIM69 (expression array)", "setting": "Refseq NM_182985.3", "result": 0.2639}, {"measurement": "fc of TRIM55 (expression array)", "setting": "Refseq NM_184086.1", "result": 0.1967}, {"measurement": "RBM39 expression fc", "setting": "Refseq NM_184234.1", "result": 0.263}, {"measurement": "INO80C expression fc", "setting": "Refseq NM_194281.3", "result": "−0.1128"}, {"measurement": "SPTY2D1 expression fc", "setting": "Refseq NM_194285.2", "result": "−0.2916"}, {"measurement": "fc of RNASE4 (expression array)", "setting": "Refseq NM_194431.1", "result": "−0.1107"}, {"measurement": "BID fc", "setting": "Refseq NM_197966.1", "result": "−0.1675"}, {"measurement": "fc of MZF1 (expression array)", "setting": "Refseq NM_198055.1", "result": 0.05558}, {"measurement": "fc of ARSK (expression array)", "setting": "Refseq NM_198150.1", "result": 1.03}, {"measurement": "fc of SRC (expression array)", "setting": "Refseq NM_198291.1", "result": 0.0569}, {"measurement": "fc of APOOL (expression array)", "setting": "Refseq NM_198450.3", "result": 1.369}, {"measurement": "DENND2C expression fc", "setting": "Refseq NM_198459.2", "result": "−0.2684"}, {"measurement": "TPRX1 expression fc", "setting": "Refseq NM_198479.2", "result": "−0.05019"}, {"measurement": "AGRN expression fc", "setting": "Refseq NM_198576.2, cultured human skeletal muscle", "result": 0.3808}, {"measurement": "C1QTNF1 expression fc", "setting": "Refseq NM_198594.1, cultured human skeletal muscle", "result": 0.7696}, {"measurement": "fc of SERPINB8 (expression array)", "setting": "Refseq NM_198833.1", "result": 1.016}, {"measurement": "SEMA4B expression fc", "setting": "Refseq NM_198925.1, cultured human skeletal muscle", "result": 0.1542}, {"measurement": "C9orf169 expression fc", "setting": "Refseq NM_199001.1, cultured human skeletal muscle", "result": "−0.05213"}, {"measurement": "T1560 expression fc", "setting": "Refseq NM_199048.1", "result": 0.02012}, {"measurement": "XAF1 expression fc", "setting": "Refseq NM_199139.1, cultured human skeletal muscle", "result": 0.6222}, {"measurement": "SAA1 expression fc", "setting": "Refseq NM_199161.1, cultured human skeletal muscle", "result": 0.2569}, {"measurement": "C20orf117 fc", "setting": "Refseq NM_199181.2", "result": "−0.5322"}, {"measurement": "fc of TMEM189-UBE2V1 (expression array)", "setting": "Refseq NM_199203.1", "result": 0.06378}, {"measurement": "DGKA expression fc", "setting": "Refseq NM_201554.1, cultured human skeletal muscle", "result": 0.1014}, {"measurement": "fc of ZMYM3 (expression array)", "setting": "Refseq NM_201599.1", "result": "−0.01297"}, {"measurement": "FBXO33 expression fc", "setting": "Refseq NM_203301.1", "result": 0.2162}, {"measurement": "SYNJ1 expression fc", "setting": "Refseq NM_203446.1", "result": "−0.07515"}, {"measurement": "fc of CMPK2 (expression array)", "setting": "Refseq NM_207315.2", "result": 1.351}, {"measurement": "CYP4V2 fc", "setting": "Refseq NM_207352.2", "result": "−0.4989"}, {"measurement": "fc of C15orf52 (expression array)", "setting": "Refseq NM_207380.1", "result": "−0.2956"}]}]}
